Assay results taken from paper PMC11929074, “An in vitro platform for the enzymatic characterization of the rhomboid protease RHBDL4” (The Journal of Biological Chemistry, 2025).
“Also recorded” adds a separate entry of the source. The star is where a group is joined. Dnp = O=[N+]([O-])c1ccc(*)c([N+](=O)[O-])c1; Mca = COc1ccc2c(CC(=O)*)cc(=O)oc2c1

How the values were obtained:
recombinant human RHBDL4 [1] = target: T1, recombinant human RHBDL4 (Homo sapiens, UniProt Q8TEB9); assay: FRET-based cleavage assay with fluorescent (IQ / KSp207) substrates; assay type: biochemical; settings: for RHBDL4-catalyzed activity towards GlpG/PARL model substrates: in vitro cleavage assay; for kcat: average ± S.E.M.
T1 construct: The entire RHBDL4 and RHBDL4-S144A cDNAs were subcloned into the pcDNA3.1 vector; 6xHis (C, cleaved yes); made in house; host or cells: Freestyle 293-F cells (transient transfection, pcDNA3.1-HisA)
T1 sequence (Q8TEB9 1-315): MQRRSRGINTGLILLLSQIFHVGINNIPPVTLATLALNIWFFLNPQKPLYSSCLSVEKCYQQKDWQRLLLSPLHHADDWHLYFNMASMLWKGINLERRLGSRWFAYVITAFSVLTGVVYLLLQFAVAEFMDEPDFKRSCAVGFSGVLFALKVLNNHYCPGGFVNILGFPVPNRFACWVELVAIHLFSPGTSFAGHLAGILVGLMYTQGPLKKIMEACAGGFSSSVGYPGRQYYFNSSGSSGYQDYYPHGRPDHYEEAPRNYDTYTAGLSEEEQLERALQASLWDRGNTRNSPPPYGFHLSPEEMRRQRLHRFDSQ
Procedure: Figure 2 Kinetic characterization of recombinant human RHBDL4.A, schematic representation of the FRET-based cleavage assay using internally quenched (IQ) substrates. B, saturation curves of RHBDL4 using the fluorescent IQ substrates, IQ6, IQ41, and IQ46. C, pH dependence of the RHBDL4 protease activity using substrates IQ6, IQ41, and IQ46. D, salt concentration dependence of the RHBDL4 protease activity using substrates IQ6, IQ41, and IQ46. All the assays were performed in triplicate, and data points are represented by the average ± S.E.M. TEXT PRINTED IN THE PICTURE: (B) IQ 6: KM(μM) 10.73±2; Kcat(hr^-1) 7.33±0.6 | (B) IQ 41: KM(μM) 5.63±2; Kcat(hr^-1) 2.41±0.6 | (B) IQ 46: KM(μM) 7.19±1; Kcat(hr^-1) 3.62±0.8
(§1) The reaction setup in our FRET assay enabled the direct determination of Michaelis–Menten kinetic parameters Km and kcat for the cleavage of IQ6, IQ41, and IQ46 by RHBDL4. Our fluorescence reading data were converted to μM/h using the standard calibration curve for all three IQ substrates, and the correction factor for the inner filter effect was applied. We confirmed that purified RHBDL4 followed Michaelis–Menten kinetics with KmIQ6=10.73±2μΜ , KmIQ41=5.63±2μΜ , and KmIQ46=7.19±1μΜ and kcatIQ6=7.33±0.6h^−1 , kcatIQ41=2.41±0.6h^−1 , and kcatIQ46=3.62±0.08h^−1 (Figs. 2B and S2B).
Our FRET-based assay is a suitable platform for optimizing conditions that enhance RHBDL4 protease activity. To this end, we selected the optimal pH for RHBDL4 protease activity and performed FRET-based assays with IQ6, IQ41, and IQ46 at a pH range of 5 to 10. […] The optimal salt concentration for the RHBDL4 protease activity was also tested in the range of 100 to 300 mM (Fig. 2D). We conclude that with the IQ6, IQ41, and IQ46 substrates, RHBDL4 had satisfactory activity in a salt concentration range of 100 to 300 mM.
Figure 5 In vitro inhibition of RHBDL4 activity with TMED7-derived peptidyl α-ketoamides.A, schematic representation of the peptidyl-α-ketoamide inhibitor, compound 3 and 4. B, representative inhibition curve derived from measuring rates of RHBDL4 proteolysis of the fluorescent substrate IQ6 with increasing concentrations of compound 3. C, same as (B), except inhibition curve was derived from using increasing concentrations of compound 4. […] Reactions were quenched with 1 RLaemmli buffer and loaded on 12% SDS-PAGE gel. Post-transfer membranes were visualized using a fluorescence Cy3 filter and by Western blotting using an α-His antibody. E, saturation curve of RHBDL4 using fluorescent substrate, KSp207. For (B and C), all inhibitors were pre-incubated with RHBDL4 for 1 h and allowed to react with the IQ6 substrate for 2 h. […]
(§2) The enzymatic assay was performed as previously described (Arutyunova et al., 2014, ([26])). […] The FRET-based cleavage assay was conducted in a fluorescence multiwell plate reader (SynergyMx, BioTek). Upon excitation at 320 nm, the emission intensity at 400 nm was recorded for 2 h at minimal intervals under shaking conditions and plotted using the GraphPad PRISM software. The initial velocities were defined as the slopes of the curve of the generated product as a function of time. The plots of the generated product against the corresponding substrate concentration were fitted with the Michaelis–Menten equation. Catalytic parameters were extrapolated using GraphPad PRISM. […] The samples were desalted using C18 tips (Rainin), eluted in 80% acetonitrile, and dried down in a vacuum centrifuge prior to mass spectrometry analysis.
All the calculations for Km, Vmax, and Kcat for RHBDL4 and its mutants were performed using GraphPad PRISM.

[2] = system: bacterial rhomboid protease GlpG; settings: ref [26], [27]; cited from earlier work
[3] = system: mammalian rhomboid protease PARL; settings: ref [26], [27]; cited from earlier work
RHBDL4-AR = assay: FRET-based cleavage of IQ6 by RHBDL4-AR mutant (WR motif); assay type: biochemical, human; settings: IQ6 substrate; n = 3
Excerpt: (§3) All mutants had robust expression on day 3 post-transfection of Freestyle 293-F cells, when cells were harvested for purification. RHBDL4 contains two motifs that are well conserved among the rhomboid superfamily, the WR motif in L1 and the Gx3G motif in TM domain 6 (Fig. S3, A and B) ([8]). Both motifs are required for RHBDL4-mediated ERAD function (Fleig et al. 2012). We predicted that both AR and Ax3G mutants would result in lower RHBDL4 activity. To that end, RHBDL4-AR and RHBDL4-Ax3G were expressed and purified using affinity Ni-NTA column followed by SEC (Fig. 3, B and C). […]
(§4) Figure 3 Dependence of conserved rhomboid motifs on RHBDL4 protease activity.A, RHBDL4 representation highlighting TM1–6 (in green), the VBM- and UIM-binding motifs (in blue), the conserved rhomboid motifs (WR and Gx3G), and the serine-histidine catalytic dyad (in pink). […] D, activity profiles of the WT RHBDL4 and mutant RHBDL4-S144A, RHBDL4-AR, and RHBDL4-Ax3G proteins, as measured by cleavage of the fluorescent substrate IQ6. […]
(§5) The enzymatic assay was performed as previously described (Arutyunova et al., 2014, ([26])). […] The FRET-based cleavage assay was conducted in a fluorescence multiwell plate reader (SynergyMx, BioTek). Upon excitation at 320 nm, the emission intensity at 400 nm was recorded for 2 h at minimal intervals under shaking conditions and plotted using the GraphPad PRISM software. […]

RHBDL4-Ax3G = assay: FRET-based cleavage of IQ6 by RHBDL4-Ax3G mutant; assay type: biochemical, human; settings: IQ6 substrate; n = 3
Excerpt: as §3, §4, §5

recombinant human RHBDL4 [4] = target: T1, recombinant human RHBDL4; assay: Mass spectrometry identification of cleavage sites in IQ6; assay type: biochemical; settings: 1.5 μM RHBDL4, 10 μM IQ6, 4 h, room temperature, quenched with 8 M GuHCl; MS/MS
Procedure: as §2
Supplemental Information 4. […] (B) Depiction of IQ6 cleavage sites as determined from tandem mass spectrometry (MS/MS). (C) Peptide sequence of GlpG-derived and PARL-derived fluorescent substrates IQ4 and IQ15, respectively. (D) Activity profiles of the wild-type RHBDL4 and mutant RHBDL4-S144A, as measured by cleavage of the fluorescent substrates IQ4 and IQ15. Assays was performed in triplicate, and data points are represented by the average ± S.E.M.

RHBDL4-S144A = assay: FRET-based cleavage by inactive RHBDL4-S144A; assay type: biochemical, human; settings: pH 8, 37 °C
Excerpt: as §1
Figure 3 Dependence of conserved rhomboid motifs on RHBDL4 protease activity.A, RHBDL4 representation highlighting TM1–6 (in green), the VBM- and UIM-binding motifs (in blue), the conserved rhomboid motifs (WR and Gx3G), and the serine-histidine catalytic dyad (in pink). The table indicates the RHBDL4 region, the conserved rhomboid motifs, and amino acid mutation. The RHBDL4 proteolytic activity. B, size-exclusion chromatography profile of RHBDL4-AR and RHBDL4-Ax3G, being eluted as a monomeric protein. C, coomassie staining and Western blotting using an α-His antibody of concentrated purified RHBDL4-AR and RHBDL4-Ax3G. D, activity profiles of the WT RHBDL4 and mutant RHBDL4-S144A, RHBDL4-AR, and RHBDL4-Ax3G proteins, as measured by cleavage of the fluorescent substrate IQ6. Assay was performed in triplicate (n = 3), and data points are represented by the average ± S.E.M. Statistically significant differences compared to WT RHBDL4 are indicated (pairwise Dunnett's test followed by Bonferroni's post hoc analysis; ∗p < 0.05, n.s., no significance).
as §5

| Substance | RHBDL4-catalyzed activity towards GlpG/PARL model substrates (recombinant human RHBDL4 [1]; triplicate) | cleavage by GlpG [2] | cleavage by PARL [3] | decrease in activity compared with WT RHBDL4 (RHBDL4-AR) | kcat (recombinant human RHBDL4 [1]; 37 °C, pH 8.0, triplicate) | cleavage rate/efficiency relative to other substrates (recombinant human RHBDL4 [1]; FRET-based assay) | faster kinetics in comparison to IQ41 (recombinant human RHBDL4 [1]; IQ6 versus IQ41) | faster kinetics in comparison to IQ46 (recombinant human RHBDL4 [1]; IQ6 versus IQ46) | kcat (recombinant human RHBDL4 [1]; Michaelis-Menten, 1.5 μM RHBDL4, 37 °C, 2 h, pH 8.0, 150 mM NaCl, 0.1% DDM, triplicate) | catalytic rate (cleavage rate) (recombinant human RHBDL4 [1]; approximate, discussion) | pH of highest RHBDL4 protease activity (recombinant human RHBDL4 [1]; pH range 5 to 10, triplicate) | salt concentration range with satisfactory activity (recombinant human RHBDL4 [1]; salt tested 100 to 300 mM, triplicate) | enzymatic cleavage activity compared with WT RHBDL4 (RHBDL4-Ax3G) | N-terminal cleavage products (recombinant human RHBDL4 [4]) | cleavage by inactive RHBDL4-S144A (increase in fluorescence / activity) (RHBDL4-S144A) |
| --- | --- | --- | --- | --- | --- | --- | --- | --- | --- | --- | --- | --- | --- | --- | --- |
| mca-RPKPYAvWMK(dnp) [IQ4, GlpG model substrate mca-RPKPYAvWMK(dnp)] | did not observe any RHBDL4-catalyzed activity | cleave | – | – | – | – | – | – | – | – | – | – | – | – | – |
| mca-AVFLSAVAG(dnp) [IQ15, PGAM-derived PARL model substrate mca-…(dnp)] | did not observe any RHBDL4-catalyzed activity | – | cleave | – | – | – | – | – | – | – | – | – | – | – | – |
| Mca-Arg-Pro-Pro-Gly-Phe-Ser-Ala-Phe-Lys (DNP)-OH (Mca-RPPGFSAFK(Dnp)-OH; SMILES COc1ccc2c(CC(=O)N[C@@H](CCCNC(=N)N)C(=O)N3CCC[C@H]3C(=O)N3CCC[C@H]3C(=O)NCC(=O)N[C@@H](Cc3ccccc3)C(=O)N[C@@H](CO)C(=O)N[C@@H](C)C(=O)N[C@@H](Cc3ccccc3)C(=O)N[C@@H](CCCCNc3ccc([N+](=O)[O-])cc3[N+](=O)[O-])C(=O)O)cc(=O)oc2c1) [IQ6, fluorescent internally quenched substrate mca-…(dnp)] | – | – | – | ~6 fold | 0.00204 ± 0.00017 s⁻¹ | exhibited the highest cleavage rate for RHBDL4 proteolysis; also recorded: maximum activity | three-fold | two-fold | 0.00204 ± 0.00017 s⁻¹ | approximately 7 /h | 8 | 100 to 300 mM | retained enzymatic cleavage activity at levels comparable to WT RHBDL4 | mca-RPPGFSA and mca-RPPGFS | negligible increase in fluorescence; also recorded: negligible activity |
